Experimental data reported in US20180273635A1 (Zymeworks, published 2018).
Residue numbers refer to the chain shown, from its start. Read-outs that look alike come from different tables or passages of the source.

B1: Variant 14055 (antibody, human IgG1, kappa)
heavy: EVQLVESGGGLVQPGGSLRLSCAASGFTFQDYTMDWVRQAPGKGLEWVADVNPNSGGSIYNQRFKGRFTLSVDRSWNTLYLQMNSLRAEDTAVYYCARNLGPWFYFDYWGQGTLVTVSSASTKGPSVFPLAPSSKSTSGGTAALGCLVKDYFPEPVTVSWNSGALTSGVHTFPAVLQSSGLYSLSSVVTVPSSSLGTQTYICNVNHKPSNTKVDKKVEPKSCDKTHTCPPCPAPELLGGPSVFLFPPKPKDTLMISRTPEVTCVVVDVSHEDPEVKFNWYVDGVEVHNAKTKPREEQYNSTYRVVSVLTVLHQDWLNGKEYKCKVSNKALPAPIEKTISKAKGQPREPQVYVYPPSRDELTKNQVSLTCLVKGFYPSDIAVEWESNGQPENNYKTTPPVLDSDGSFALVSKLTVDKSRWQQGNVFSCSVMHEALHNHYTQKSLSLSPG
light: not shown
chain: not shown
notes: OA (one-armed) format; clones 8784, 7919, 4372; also called v14055
B2: Variant 14024 (antibody, human IgG1, kappa)
heavy: B1 heavy with Q30T, W103S
light: not shown
chain: not shown
notes: OA (one-armed) format; clones 7844, 7919, 4372; also called v14024
B3: Variant 14043 (antibody, human IgG1, kappa)
heavy: B1 heavy with W103S
light: not shown
chain: not shown
notes: OA (one-armed) format; clones 8775, 7919, 4372; also called v14043
B4: Variant 14025 (antibody, human IgG1, kappa)
heavy: B1 heavy with W103S
light: not shown
chain: not shown
notes: OA (one-armed) format; clones 8775, 1811, 4372; also called v14025
B5: Variant 14050 (antibody, human IgG1, kappa)
heavy: B1 heavy with W76K
light: not shown
chain: not shown
notes: OA (one-armed) format; clones 8780, 7919, 4372; also called v14050
B6: Variant 10014 (antibody)
heavy: B1 heavy with Q30A, W76K, W103S
light: not shown
Fc: not shown
notes: Fc substitutions are in EU numbering; also called v10014
B7: variant 12529 (antibody, human IgG1, kappa)
heavy: B1 heavy with Q30T, W76K, W103S
light: not shown
chain: not shown
notes: also called v12529

Key:
Recombinant human HER2 [1] = biological target: T1, Recombinant human HER2 (human, UniProt P04626 23-652); assay: SPR, 25 C; Ka ratio to WT v10013;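 further: constructs captured via anti-human Fc on CM5 chip, HER2 ECD as analyte in duplicate dilutions, sensorgrams globally fit to 1:1 Langmuir model on Biacore T200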
T1 construct: extracellular domain; Analyte of the SPR assays; also called HER2 ECD; ECD2 of HER2

Recombinant human HER2 [2] = biological target: T1, Recombinant human HER2; assay: calculated from the SPR Ka ratio to WT v10013;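 further: SPR at 25 °C with constructs captured on an anti-human Fc chip and HER2 extracellular domain as analyte, kinetics fitted to a 1:1 Langmuir model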
Experimental: (§1) The affinity towards HER2 ECD of the samples was measured by SPR on a Biacore T200 as follows. Between 2000 and 4000 RU of anti-human Fc injected at concentration between 5 and 10 μg/ml was immobilized on a CM5 chip using standard amine coupling. Antigen-binding constructs were captured on the anti-human Fc (injected at concentration at 0.51 microg/mL in PBST, 1 min at 10 microl/min) at response levels ranging from 120-270 RU. […] HER2 dilutions were analyzed in duplicates. Sensograms were fit globally to a 1: 1 Langmuir binding model, using the software provided with the Biacore T200. All experiments were conducted at 25° C.

Recombinant human HER2 [3] = biological target: T1, Recombinant human HER2; assay: SPR at 25 C of the OA variant, equilibrium association constant
Experimental: as §1

Recombinant human HER2 [4] = biological target: T1, Recombinant human HER2; assay: as above; remark: listed apart in the source
Experimental: as §1

Recombinant human HER2 [5] = biological target: T1, Recombinant human HER2; assay: SPR at 25 C of the OA variant, logarithm of the association constant
Experimental: as §1

Recombinant human HER2 [6] = biological target: T1, Recombinant human HER2; assay: as above; remark: listed apart in the source
Experimental: as §1

Recombinant human HER2 [7] = biological target: T1, Recombinant human HER2; assay: SPR, Biacore T200, 25 C; variant captured on anti-human Fc, HER2 flowed;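 further: HER2 extracellular domain analyte run as duplicate dilutions over amine-coupled anti-Fc on a CM5 chip, rates from global sensorgram fitting with a 1:1 Langmuir model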
Recombinant human HER2 [8] = biological target: T2, Recombinant human HER2 (human, UniProt P04626 23-652); assay: SPR, pre-SEC; ratio to WT v10013
T2 construct: extracellular domain; analyte of the SPR assays; also called HER2 ECD; ECD2 of HER2
Experimental: as §1
(§2) The affinity of antigen-binding constructs in OA format was determined by SPR following protein A purification. […] Antigen-binding constructs in FSA format were purified by protein A affinity and SEC prior to assessment of affinity by SPR.

Recombinant human HER2 [9] = biological target: T2, Recombinant human HER2; assay: SPR, post-SEC; ratio to WT v10013
Experimental: as §1, §2

Recombinant human HER2 [10] = biological target: T2, Recombinant human HER2; assay: SPR, variant captured on anti-human Fc, HER2 flowed, 25 C, pre-SEC
Experimental: as §1

Recombinant human HER2 [11] = biological target: T2, Recombinant human HER2; assay: SPR, variant captured on anti-human Fc, HER2 flowed, 25 C, post-SEC
Experimental: as §1, §2

| Binder | Ka, mut/Ka, WT (Recombinant human HER2 [1]) [fold] | ΔΔG (Recombinant human HER2 [2]) [kcal/mol] | Ka (Recombinant human HER2 [3]) [M⁻¹] | Ka (Recombinant human HER2 [4]) [M⁻¹] | Log Ka (Recombinant human HER2 [5]) | Log Ka (Recombinant human HER2 [6]) | Kd (Recombinant human HER2 [7]) [nM] | koff (Recombinant human HER2 [7]) [s⁻¹] | kon (Recombinant human HER2 [7]) [M⁻¹ s⁻¹] | Ka, mut/Ka, WT (Recombinant human HER2 [8]) | Ka, mut/Ka, WT (Recombinant human HER2 [9]) | Kd (Recombinant human HER2 [10]) [nM] | Kd (Recombinant human HER2 [11]) [nM] |
| --- | --- | --- | --- | --- | --- | --- | --- | --- | --- | --- | --- | --- | --- |
| B1 | ~77 | -2.6 | 4.7e+09 | 4.7e+09 | 9.7 | 9.7 | ~0.21 | ~1.6e-05 | 73000 |  |  |  |  |
| B2 | ~67 | -2.5 | 4e+09 | 4e+09 | 9.6 | 9.6 | ~0.25 | ~2.1e-05 | 85000 |  |  |  |  |
| B3 | ~102 | -2.7 | 5.3e+09 | 5.3e+09 | 9.7 | 9.7 | ~0.19 | ~1.4e-05 | 73000 |  |  |  |  |
| B4 | ~41 | -2.2 | 2.5e+09 | 2.5e+09 | 9.4 | 9.4 | ~0.4 | ~2.6e-05 | 65000 |  |  |  |  |
| B5 | 12 | -1.5 | 6.2e+08 | 6.2e+08 | 8.8 | 8.8 | 1.6 | 7.4e-05 | 46000 |  |  |  |  |
| B6 |  |  | 4.7e+08 | 4.7e+08 | 8.7 | 8.7 |  |  |  |  |  |  |  |
| B7 |  |  |  |  |  |  |  |  |  | 2.1 | 2.3 | 9.2 | 9 |
